What is called IC50 is the concentration that gives 50% inhibition. Read a low IC50 as higher potency. The term Kd denotes the free concentration of one partner at which half of the binding sites on the other are occupied at equilibrium, for simple one-to-one binding.

In assay [1] the target is HLA-A*01:01. The assay can be described thus: IEDB peptide-MHC binding, purified MHC/competitive/fluorescence; ≥ and ≤ were set here for values at or beyond the usual limits of such assays. Conditions: source organism: Homo sapiens.
Assay [2] deals with HLA-A*24:02. The assay is described as above. Conditions: source organism: Homo sapiens.
The target in assay [3] is HLA-A*25:01. Described as above. Conditions: source organism: Homo sapiens.
The target of assay [4] is HLA-B*18:01. The description is as above. The conditions noted are these: source organism: Homo sapiens.
Assay [5] deals with HLA-A*29:02. The description is as above. Conditions: source organism: Homo sapiens.
For assay [6], the target named is HLA-A*31:01. The assay is described as above. The conditions noted are these: source organism: Homo sapiens.
Assay [7] concerns the target HLA-B*40:02. The description is as above. The conditions noted are these: source organism: Homo sapiens.
Assay [8] addresses HLA-B*44:03. Described as above. Conditions: source organism: Homo sapiens.
In assay [9] the target is HLA-B*14:02. Described as above. Conditions: source organism: Homo sapiens.
In assay [10] the target is HLA-B*51:01. The description is as above. The conditions noted are these: source organism: Homo sapiens.
For assay [11], the target named is HLA-B*53:01. The assay is described as above. The conditions noted are these: source organism: Homo sapiens.
For assay [12], the target named is HLA-B*07:02. Described as above. Conditions: source organism: Homo sapiens.
The target in assay [13] is HLA-A*03:01. The assay is described as above. The conditions noted are these: source organism: Homo sapiens.
In assay [14] the target is HLA-A*68:02. The description is as above. The conditions noted are these: source organism: Homo sapiens.
For assay [15], the target named is HLA-A*11:01. Described as above. The conditions noted are these: source organism: Homo sapiens.
The target in assay [16] is HLA-A*02:01. The description is as above. The conditions noted are these: source organism: Homo sapiens.
In assay [17] the target is HLA-B*37:01. Described as above. Conditions: source organism: Homo sapiens.
The target in assay [18] is HLA-B*08:01. Described as above. Conditions: source organism: Homo sapiens.
In assay [19] the target is HLA-B*58:01. The assay is described as above. The conditions noted are these: source organism: Homo sapiens.
For assay [20], the target named is HLA-B*35:01. Described as above. The conditions noted are these: source organism: Homo sapiens.
For assay [21], the target named is HLA-B*15:09. The assay can be described thus: IEDB peptide-MHC binding, purified MHC/competitive/fluorescence; filed as Kd, often an IC50 or EC50 that approximates it; ≥ and ≤ were set here for values at or beyond the usual limits of such assays. Conditions: source organism: Giardia lamblia ATCC 50803.
The target of assay [22] is HLA-A*01:01. The assay can be described thus: IEDB peptide-MHC binding, purified MHC/direct/fluorescence; filed as Kd, often an IC50 or EC50 that approximates it; ≥ and ≤ were set here for values at or beyond the usual limits of such assays. Conditions: source organism: Giardia lamblia ATCC 50803.
Assay [23] has as its target HLA-B*57:01. Described as above. Conditions: source organism: Giardia lamblia ATCC 50803.
Assay [24] has as its target HLA-B*46:01. The assay is described as above. The conditions noted are these: source organism: Giardia lamblia ATCC 50803.
In assay [25] the target is HLA-A*30:01. The description is as above. Conditions: source organism: Giardia lamblia ATCC 50803.
Assay [26] addresses HLA-B*40:01. The assay is described as above. Conditions: source organism: Giardia lamblia ATCC 50803.
Assay [27] concerns the target HLA-B*27:05. The description is as above. Conditions: source organism: Giardia lamblia ATCC 50803.
Assay [28] concerns the target HLA-A*69:01. The assay is described as above. The conditions noted are these: source organism: Giardia lamblia ATCC 50803.
Assay [29] deals with HLA-B*18:01. The description is as above. The conditions noted are these: source organism: Giardia lamblia ATCC 50803.
Assay [30] addresses HLA-A*31:01. The assay is described as above. The conditions noted are these: source organism: Giardia lamblia ATCC 50803.
Assay [31] concerns the target HLA-B*51:01. The assay is described as above. Conditions: source organism: Giardia lamblia ATCC 50803.
The target in assay [32] is HLA-B*15:01. The description is as above. Conditions: source organism: Giardia lamblia ATCC 50803.
The target in assay [33] is HLA-B*07:02. The assay is described as above. Conditions: source organism: Giardia lamblia ATCC 50803.
The target of assay [34] is HLA-A*03:01. The assay is described as above. Conditions: source organism: Giardia lamblia ATCC 50803.
For assay [35], the target named is HLA-C*03:03. Described as above. The conditions noted are these: source organism: Giardia lamblia ATCC 50803.
For assay [36], the target named is HLA-A*11:01. The description is as above. The conditions noted are these: source organism: Giardia lamblia ATCC 50803.
For assay [37], the target named is HLA-A*02:01. The assay is described as above. The conditions noted are these: source organism: Giardia lamblia ATCC 50803.
Assay [38] addresses HLA-B*15:17. The assay is described as above. Conditions: source organism: Giardia lamblia ATCC 50803.
For assay [39], the target named is HLA-B*48:01. The assay is described as above. Conditions: source organism: Giardia lamblia ATCC 50803.
Assay [40] addresses HLA-B*58:01. The assay is described as above. The conditions noted are these: source organism: Giardia lamblia ATCC 50803.
Assay [41] deals with HLA-B*48:01. The assay can be described thus: IEDB peptide-MHC binding, purified MHC/competitive/fluorescence; filed as Kd, often an IC50 or EC50 that approximates it; ≥ and ≤ were set here for values at or beyond the usual limits of such assays. Conditions: source organism: Toxoplasma gondii RH.

A value given as a limit tells only on which side of the number the result lay.

With ELFARSSDPR, the IC50 in assay [1] was not below 20 µM; in assay [2], not below 20 µM; in [3] it was not below 20 µM; in assay [4], not below 20 µM; in [5] it was not below 20 µM; in [6] it was 15.5 µM. Moreover, the IC50 in assay [7], in assay [8], in assay [9], in [10], in assay [11] and in assay [12] was not below 20 µM throughout. For the same sequence, the IC50 is not below 20 µM in [13]; 5.66 µM in [14]; not below 20 µM in assay [15]; not below 20 µM in assay [16]; not below 20 µM in [17]; not below 20 µM in [18]. The IC50 in assay [19] and in assay [20] was not below 20 µM throughout.

For LVTMGTGTFGR, the half-maximal inhibitory concentration (IC50) in assay [1], in assay [2], in [3], in assay [4], in [5] and in assay [6] was not below 20 µM throughout. In addition, the 50% inhibitory concentration (IC50) in [7] is not below 20 µM; in [8], not below 20 µM; in [9], not below 20 µM; in assay [10] it was not below 20 µM; in [11], not below 20 µM; in [12], 13.7 µM. Further, the IC50 in assay [13] was not below 20 µM; in [14] it was not below 20 µM; in assay [15] it was 0.386 µM; in [16], not below 20 µM; in [17], not below 20 µM; in assay [18], not below 20 µM. Also, the IC50 was not below 20 µM in [19] and 0.975 µM in assay [20].

As for RQSSGSSSSGF, the half-maximal inhibitory concentration (IC50) in assay [1], in assay [2], in [3], in [4], in [5] and in assay [6] was not below 20 µM in each case. Further, the half-maximal inhibitory concentration (IC50) in assay [7] was 2.06 µM; in [8], not below 20 µM; in assay [9], not below 20 µM; in [10] it was not below 20 µM; in assay [11], not below 20 µM; in assay [12] it was not below 20 µM. In addition, the half-maximal inhibitory concentration (IC50) was not below 20 µM in assay [13]; not below 20 µM in [14]; not below 20 µM in assay [15]; not below 20 µM in assay [16]; 0.317 µM in assay [17]; not below 20 µM in [18]. For the same sequence, the half-maximal inhibitory concentration (IC50) in assay [19] and in assay [20] was not below 20 µM throughout.

Regarding VAAKGAPAL, the Kd in [21], in assay [22], in assay [23], in [24], in [25] and in assay [26] was not below 20 µM throughout. The Kd in assay [27] is not below 20 µM; in assay [28], 0.0677 µM; in [29], not below 20 µM; in assay [30] it was not below 20 µM; in assay [31], not below 20 µM; in [32], not below 20 µM. Moreover, the Kd in assay [33] is 0.279 µM; in assay [34], not below 20 µM; in assay [35] it was 0.003 µM; in assay [36] it was not below 20 µM; in assay [37], not below 20 µM; in assay [38], 0.0071 µM. Also, the values for the equilibrium dissociation constant (Kd) in assay [39] and in assay [40] were 5.66 µM and 0.952 µM, respectively.

For WQLSGVVPL, the Kd in [41] is 0.0299 µM.

The values are drawn from the Immune Epitope Database (IEDB).
